Laboratory results as given in patent US11130803B2, “Isoform-selective TGFβ1 inhibitors and use thereof” (Scholar Rock, Inc., priority 2018, dated 2021).

What was measured:
[1] = target: T1, recombinant human GARP-proTGFβ1 complex (Homo sapiens, UniProt P01137); test: Octet (Biolayer Interferometry) in vitro kinetic binding; conditions: in M
T1 construct: made in house
Outline: (§1)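 Antibody binding kinetics (KD) were determined by biolayer interferometry (Octet QKe) using streptavidin-coated biosensors. Biotinylated human presenting molecule–proTGFβ1 complexes were presented at […].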

[2] = target: T2, recombinant human LRRC33-proTGFβ1 complex (Homo sapiens, UniProt P01137); test: as above; conditions: in M
T2 construct: made in house
T2 sequence (P01137 30-390): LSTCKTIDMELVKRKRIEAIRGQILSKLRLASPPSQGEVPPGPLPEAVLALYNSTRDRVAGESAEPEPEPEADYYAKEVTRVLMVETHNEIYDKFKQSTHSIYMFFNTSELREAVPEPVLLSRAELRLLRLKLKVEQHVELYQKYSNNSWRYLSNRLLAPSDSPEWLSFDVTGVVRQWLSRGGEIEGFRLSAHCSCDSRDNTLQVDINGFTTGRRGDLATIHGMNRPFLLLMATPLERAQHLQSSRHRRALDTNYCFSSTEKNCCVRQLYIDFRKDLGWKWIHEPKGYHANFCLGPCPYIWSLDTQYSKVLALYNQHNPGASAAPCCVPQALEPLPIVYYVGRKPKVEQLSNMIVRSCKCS
T2 sequence (Q86YC3 19-650 partner limits assumed): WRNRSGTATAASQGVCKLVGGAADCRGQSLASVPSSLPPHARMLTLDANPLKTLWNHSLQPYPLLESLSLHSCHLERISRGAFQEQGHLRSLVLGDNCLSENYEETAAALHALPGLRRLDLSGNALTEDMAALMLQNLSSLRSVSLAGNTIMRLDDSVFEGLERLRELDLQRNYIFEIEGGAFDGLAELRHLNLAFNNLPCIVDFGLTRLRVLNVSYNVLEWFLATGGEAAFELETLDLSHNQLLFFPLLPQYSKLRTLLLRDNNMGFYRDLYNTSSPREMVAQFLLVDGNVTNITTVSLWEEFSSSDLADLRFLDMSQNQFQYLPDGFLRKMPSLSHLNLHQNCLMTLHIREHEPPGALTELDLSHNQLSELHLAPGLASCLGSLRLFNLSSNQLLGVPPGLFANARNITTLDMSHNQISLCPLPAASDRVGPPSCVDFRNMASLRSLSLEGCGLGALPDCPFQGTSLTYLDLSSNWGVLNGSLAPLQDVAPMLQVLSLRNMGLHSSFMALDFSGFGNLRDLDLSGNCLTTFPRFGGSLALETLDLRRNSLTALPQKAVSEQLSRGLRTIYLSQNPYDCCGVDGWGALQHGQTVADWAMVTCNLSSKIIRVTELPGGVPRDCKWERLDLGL
Outline: as §1

[3] = target: T3, recombinant human LTBP1-proTGFβ1 complex (Homo sapiens, UniProt P01137); test: as above; conditions: in M
T3 construct: made in house; host or cells: Expi293F cells, transient co-transfection
T3 sequence (P01137 30-390): as the sequence (P01137 30-390) above
T3 sequence (Q14766 873-1507 partner): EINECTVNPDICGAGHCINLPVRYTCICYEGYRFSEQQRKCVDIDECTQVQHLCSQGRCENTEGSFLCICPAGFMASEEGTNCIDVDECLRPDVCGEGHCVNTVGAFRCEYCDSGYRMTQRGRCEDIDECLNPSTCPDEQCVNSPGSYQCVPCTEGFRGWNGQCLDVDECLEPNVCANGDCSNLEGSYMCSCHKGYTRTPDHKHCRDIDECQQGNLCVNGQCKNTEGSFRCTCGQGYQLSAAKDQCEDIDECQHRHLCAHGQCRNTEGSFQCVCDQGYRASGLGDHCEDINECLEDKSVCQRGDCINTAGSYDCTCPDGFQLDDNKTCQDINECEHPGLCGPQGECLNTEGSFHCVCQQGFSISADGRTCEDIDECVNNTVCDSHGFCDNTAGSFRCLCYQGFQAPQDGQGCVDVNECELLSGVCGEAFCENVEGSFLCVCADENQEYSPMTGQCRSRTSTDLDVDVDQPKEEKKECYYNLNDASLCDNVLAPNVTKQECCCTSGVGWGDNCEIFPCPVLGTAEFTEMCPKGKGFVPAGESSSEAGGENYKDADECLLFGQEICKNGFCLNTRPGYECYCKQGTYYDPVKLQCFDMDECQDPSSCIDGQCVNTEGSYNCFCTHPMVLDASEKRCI
Outline: as §1

[4] = target: T4, recombinant human LTBP3-proTGFβ1 complex (Homo sapiens, UniProt P01137); test: as above; conditions: in M
T4 construct: made in house; host or cells: Expi293F cells, transient co-transfection
T4 sequence (P01137 30-390): as the sequence (P01137 30-390) above
T4 sequence (Q9NS15 866-1039 partner limits assumed): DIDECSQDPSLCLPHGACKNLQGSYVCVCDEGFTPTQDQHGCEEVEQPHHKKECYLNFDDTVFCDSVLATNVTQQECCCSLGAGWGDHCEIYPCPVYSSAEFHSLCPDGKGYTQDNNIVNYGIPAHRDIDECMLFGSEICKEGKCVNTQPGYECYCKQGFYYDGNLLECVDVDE
Outline: as §1

[5] = tested on: matrix-associated (LTBP1/LTBP3) and cell-associated (GARP/LRRC33) proTGFβ1 complexes; test: Octet: average KD and fold bias, matrix- vs cell-associated complexes; format: binding, human
Outline: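 Monoclonal antibodies were measured for binding affinity, expressed as KD, to cell-surface or cell-associated proTGFβ1 complexes (GARP and LRRC33). The KD values for the two complexes were averaged to give one value for cell-associated affinity. That average was then divided by the matrix-associated average to express fold bias between the complex types.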

T1 sequence (P01137 30-390): as the sequence (P01137 30-390) above
T1 sequence (Q14392 20-627 partner limits assumed): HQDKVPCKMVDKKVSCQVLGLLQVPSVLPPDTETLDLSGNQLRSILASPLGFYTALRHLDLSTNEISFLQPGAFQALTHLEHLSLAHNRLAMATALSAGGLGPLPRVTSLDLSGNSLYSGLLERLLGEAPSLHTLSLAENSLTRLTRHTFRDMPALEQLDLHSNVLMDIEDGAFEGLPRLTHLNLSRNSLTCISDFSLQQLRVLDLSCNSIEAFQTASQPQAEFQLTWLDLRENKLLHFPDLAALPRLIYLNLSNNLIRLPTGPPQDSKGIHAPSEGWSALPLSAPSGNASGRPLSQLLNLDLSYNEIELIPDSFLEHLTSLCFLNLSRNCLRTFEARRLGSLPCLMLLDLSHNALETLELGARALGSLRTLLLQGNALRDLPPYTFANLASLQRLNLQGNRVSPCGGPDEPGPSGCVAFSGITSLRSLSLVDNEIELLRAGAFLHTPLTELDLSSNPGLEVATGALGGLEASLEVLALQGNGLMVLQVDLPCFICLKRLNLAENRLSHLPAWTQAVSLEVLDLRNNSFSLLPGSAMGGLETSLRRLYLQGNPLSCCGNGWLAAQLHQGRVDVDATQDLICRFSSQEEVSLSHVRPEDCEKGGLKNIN

(E) hGARP, Cell-associated proTGFb1 (KD) [1]: 1.12E−08 | (F) hLRRC33, Cell-associated proTGFb1 (KD) [2]: 6.92E−10 | (B) hLTBP1, Matrix-associated proTGFb1 (KD) [3]: 1.89E−10 | (C) hLTBP3, Matrix-associated proTGFb1 (KD) [4]: 1.56E−10
B1: Ab19: monoclonal antibody; VH SEQ ID NO: 250, VL SEQ ID NO: 241 (antibody, V domains shown)
VH: QVQLVESGGGVVQPGRSLRLSCAASGFTFSSFAMTWVRQAPGKGLEWVSAISGSGAATYFADSVKGRFTISRDNSKNTLYLQMNSLRAEDTAVYYCARVSSGHWDFDEWGQGTLVTVSS
VL: DIQLTQSPSSLSASVGDRVTITCRASQSISSYLNWYQQKPGKAPKLLIYAASNLQSGVPSRFSGSGSGTDFTLTISSLQPEDFATYYCQQTYTVPLTFGGGTKVEIK
Kd ([5]; average KD of (E) and (F), cell-associated complexes, read-out: (G) Cell AVRG): 5.95 nM | (H) G/D (fold bias) ([5]; ratio of average KD cell-associated / matrix-associated): 34.47 fold
